Reference: PMC10372695 (Proceedings of the National Academy of Sciences of the …, 2023)
Values joined by “and” are separate entries in the source; they are usually repeats but may differ in a detail not shown here. Identical values can stand only once. Like-named read-outs stand apart in the source and are kept apart here.

Tests used:
[1] = target: the molecule itself; experiment: single-molecule fluorescence microscopy with optical tweezers
[2] = target: the molecule itself; experiment: as above; remark: listed apart in the source

B1: C-terminal GFP-tagged SV40 LT (natural protein)
chain: MDKVLNREESLQLMDLLGLERSAWGNIPLMRKAYLKKCKEFHPDKGGDEEKMKKMNTLYKKMEDGVKYAHQPDFGGFWDATEIPTYGTDEWEQWWNAFNEENLFCSEEMPSSDDEATADSQHSTPPKKKRKVEDPKDFPSELLSFLSHAVFSNRTLACFAIYTTKEKAALLYKKIMEKYSVTFISRHNSYNHNILFFLTPHRHRVSAINNYAQKLCTFSFLICKGVNKEYLMYSALTRDPFSVIEESLPGGLKEHDFNPEEAEETKQVSWKLVTEYAMETKCDDVLLLLGMYLEFQYSFEMCLKCIKKEQPSHYKYHEKHYANAAIFADSKNQKTICQQAVDTVLAKKRVDSLQLTREQMLTNRFNDLLDRMDIMFGSTGSADIEEWMAGVAWLHCLLPKMDSVVYDFLKCMVYNIPKKRYWLFKGPIDSGKTTLAAALLELCGGKALNVNLPLDRLNFELGVAIDQFLVVFEDVKGTGGESRDLPSGQGINNLDNLRDYLDGSVKVNLEKKHLNKRTQIFPPGIVTMNEYSVPKTLQARFVKQIDFRPKDYLKHCLERSEFLLEKRIIQSGIALLLMLIWYRPVAEFAQSIQSRIVEWKERLDKEFSLSVYQKMKFNVAMGIGVLDWLRNSDDDDEDSQENADKNEDGGEKNMEDSGHETGIDSQSQGSFQAPQSSQSVHDHNQPYHICRGFTCFKKPPTPPPEPET
stoichiometry N [1]: 3 and 4 and 5
stoichiometry N [2]: 6 and 12
